# Measured values reported in patent US20250235548A1 (Zymeworks, published 2025).
# Key:
# [1] = biological target: T1, human sodium-dependent phosphate transporter 2B (NaPi2b) (human, UniProt O95436 1-690); experiment: KinExA, IGROV-1 cells, monovalent format
# T1 construct: also called hNaPi2b; Hu NaPi2b
# T1 sequence: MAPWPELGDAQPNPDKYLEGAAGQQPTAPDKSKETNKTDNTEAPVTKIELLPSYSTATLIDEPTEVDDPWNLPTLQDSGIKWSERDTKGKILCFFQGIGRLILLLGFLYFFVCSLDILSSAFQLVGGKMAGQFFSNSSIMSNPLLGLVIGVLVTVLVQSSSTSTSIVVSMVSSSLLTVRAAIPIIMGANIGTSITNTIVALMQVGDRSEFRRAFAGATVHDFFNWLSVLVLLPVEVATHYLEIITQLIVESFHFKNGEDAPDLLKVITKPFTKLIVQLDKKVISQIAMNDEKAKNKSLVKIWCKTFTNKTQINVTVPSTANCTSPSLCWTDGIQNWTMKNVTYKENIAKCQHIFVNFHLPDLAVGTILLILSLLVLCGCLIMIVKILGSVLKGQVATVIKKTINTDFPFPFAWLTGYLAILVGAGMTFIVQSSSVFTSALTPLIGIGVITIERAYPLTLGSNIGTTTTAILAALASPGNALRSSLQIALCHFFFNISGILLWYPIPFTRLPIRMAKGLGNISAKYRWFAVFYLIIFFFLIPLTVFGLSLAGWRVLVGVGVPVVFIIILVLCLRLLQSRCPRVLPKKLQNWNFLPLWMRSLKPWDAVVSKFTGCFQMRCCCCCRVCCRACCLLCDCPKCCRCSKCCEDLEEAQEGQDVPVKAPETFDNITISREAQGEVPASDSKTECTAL
# Procedure: The cell-binding assay was set up using the antibody constructs or variants as constant binding partner at two different concentrations of 50 μM and 500 μM. For the titration curve with antibody variants fixed at 50 μM, at least 10 million IGROV-1 cells were used as titrant. For the titration curve with antibody variants fixed at 500 μM, at least 5 million cells were used as titrant. The antibody variants and cells were mixed in PBS pH 7.4, 1 mg/mL BSA, 0.2% NaN₃ and incubated at 4° C. for 7 days with gentle rotation until equilibrium was reached. After incubation, the mixture of antibody variants and cells was centrifuged to separate the cells from the unbound free antibody variants.
# N-curve analysis was used to calculate the affinity and receptor expression level with the concentrations of antibody variant as reference point.
# [2] = biological target: T1, human sodium-dependent phosphate …; experiment: flow cytometry on IGROV-1 cells (endogenous NaPi2b), 24 h at 4 C, anti-human IgG Fc AF647, APC-A GeoMean
# Procedure: Briefly, cells were seeded at 50,000 cells/well in conical-bottom 96-well plates and treated with test antibody for 24 hours at 4° C. to prevent internalization. […] Following incubation and washing, fluorescence was detected by flow cytometry on a BD LSRFortessa™ Cell Analyzer (BD Biosciences, Franklin Lake, NJ) with 1,000 minimum events collected per well.
# [3] = biological target: T2, human sodium-dependent phosphate transporter 2B (NaPi2b) (human, UniProt O95436 1-690); experiment: flow cytometry on HEK293-6e cells transfected with human NaPi2b
# T2 construct: Multi-pass membrane transporter; It stood on HEK293-6e cells transfected with pTT5-huNaPi2b, or endogenously on the tumour cell lines IGROV-1, OVCAR-3, HCC-78, TOV-21G and NCI-H441; also called Hu NaPi2b; hNaPi2b
# T2 sequence: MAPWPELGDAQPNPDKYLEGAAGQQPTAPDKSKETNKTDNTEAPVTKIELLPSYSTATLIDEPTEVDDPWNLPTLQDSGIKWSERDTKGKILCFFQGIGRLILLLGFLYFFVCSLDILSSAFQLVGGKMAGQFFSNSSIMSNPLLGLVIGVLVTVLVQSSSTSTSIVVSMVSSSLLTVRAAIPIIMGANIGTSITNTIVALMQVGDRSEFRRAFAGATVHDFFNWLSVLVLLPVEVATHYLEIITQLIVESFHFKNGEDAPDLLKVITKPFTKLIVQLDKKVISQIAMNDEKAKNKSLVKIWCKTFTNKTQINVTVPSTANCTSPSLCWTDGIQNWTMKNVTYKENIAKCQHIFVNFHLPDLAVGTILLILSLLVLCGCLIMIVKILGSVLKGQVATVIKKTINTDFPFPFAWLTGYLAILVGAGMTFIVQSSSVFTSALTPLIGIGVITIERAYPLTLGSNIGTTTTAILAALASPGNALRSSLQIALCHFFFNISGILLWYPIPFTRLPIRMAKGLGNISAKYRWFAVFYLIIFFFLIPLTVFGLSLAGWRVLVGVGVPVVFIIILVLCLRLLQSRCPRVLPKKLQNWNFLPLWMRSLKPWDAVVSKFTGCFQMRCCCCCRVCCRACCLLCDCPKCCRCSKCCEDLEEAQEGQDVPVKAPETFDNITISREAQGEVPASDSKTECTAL
# Procedure: Following transfection, cells were seeded at 50,000 cells/well in conical-bottom 96-well plates and treated with test antibody or antibody-drug conjugate for 24 hours at 4° C. to prevent internalization. […] Following incubation and washing, fluorescence was detected by flow cytometry on a BD LSRFortessa™ Cell Analyzer (BD Biosciences, Franklin Lake, NJ) with 1,000 minimum events collected per well.
# [4] = biological target: T1, human sodium-dependent phosphate …; experiment: flow cytometry, IGROV-1, HCC-78 and H441 cells
binder,measurement,setting,value
"v36123, monovalent format of humanized antibody variant 29452 (antibody, V domains shown, also called VH1/VL3) VH: QVQLVQSGAEVKKPGASVKVSCKASGFTFTSYNVHWVRQAPGQGLEWMGAISPGNGDLSYAQKFQGRVTMTRDTSTSTVYMELSSLRSEDTAVYYCARGRTGMGAVDYWGQGTLVTVSS VL: DVQMTQSPSSLSASVGDRVTITCRASQDVYSYLNWYQQKPGKAVKLLIYYTSRLQSGVPSRFSGSGSGTDYTLTISSLQPEDIATYYCQQYNIFPWTFGQGTKLEIK",fold lower binding affinity than chimeric parental antibody construct,[1],~2 fold
"v36124, monovalent format of humanized antibody variant 29456 (antibody, V domains shown, also called VH1/VL2) VH: QVQLVQSGAEVKKPGASVKVSCKASGFTFTSYNVHWVRQAPGQGLEWMGAISPGNGDLSYAQKFQGRVTMTRDTSTSTVYMELSSLRSEDTAVYYCARGRTGMGAVDYWGQGTLVTVSS VL: DVQMTQSPSSLSASVGDRVTITCRASQDVYSYLNWYQQKPGKAVKLLIYYTSRLQSGVPSRFSGSGSGTDYTLTISSLQPEDFATYYCQQYNIFPWTFGQGTKLEIK",fold lower binding affinity than chimeric parental antibody construct,[1],~2 fold
"v18992 (MX35)-DL2 antibody-drug conjugate (antibody, human IgG1, kappa, maleimide functionalized auristatin drug linker (DL2); sites and DAR not stated, also called MX35-DL2 ADC) heavy 1: GQVQLVQSGAEVVKPGASVKMSCKASGYTFTGYNIHWVKQAPGQGLEWIGAIYPGNGDTSYKQKFRGRATLTADTSTSTVYMELSSLRSEDSAVYYCARGETARATFAYWGQGTLVTVSSASTKGPSVFPLAPSSKSTSGGTAALGCLVKDYFPEPVTVSWNSGALTSGVHTFPAVLQSSGLYSLSSVVTVPSSSLGTQTYICNVNHKPSNTKVDKKVEPKSCDKTHTCPPCPAPELLGGPSVFLFPPKPKDTLMISRTPEVTCVVVDVSHEDPEVKFNWYVDGVEVHNAKTKPREEQYNSTYRVVSVLTVLHQDWLNGKEYKCKVSNKALPAPIEKTISKAKGQPREPQVYVYPPSRDELTKNQVSLTCLVKGFYPSDIAVEWESNGQPENNYKTTPPVLDSDGSFALVSKLTVDKSRWQQGNVFSCSVMHEALHNHYTQKSLSLSPG heavy 2: not shown light: GDIQMTQSPSSLSASVGDRVTITCSASQDIGNFLNWYQQKPGKTVKVLIYYTSSLYSGVPSRFSGSGSGTDYTLTISSLQPEDFATYYCQQYSKLPLTFGQGTKLELKRTVAAPSVFIFPPSDEQLKSGTASVVCLLNNFYPREAKVQWKVDNALQSGNSQESVTEQDSKDSTYSLSSTLTLSKADYEKHKVYACEVTHQGLSSPVTKSFNRGEC",EC50 (read off the curve),[2],~1 nM
"humanized anti-NaPi2b antibody variant v38591 (antibody, human IgG1, kappa, Human IgG1/kappa full-size antibody; It is identical to v29456 except that the heavy chains include a C-terminal lysine; also called v38591 (H1L2)) heavy: not shown light: DVQMTQSPSSLSASVGDRVTITCRASQDVYSYLNWYQQKPGKAVKLLIYYTSRLQSGVPSRFSGSGSGTDYTLTISSLQPEDFATYYCQQYNIFPWTFGQGTKLEIKRTVAAPSVFIFPPSDEQLKSGTASVVCLLNNFYPREAKVQWKVDNALQSGNSQESVTEQDSKDSTYSLSSTLTLSKADYEKHKVYACEVTHQGLSSPVTKSFNRGEC",Bmax,[3],65
"v21995 (palivizumab), anti-RSV negative control antibody (antibody, human IgG1, kappa, V domains shown) VH: QVTLRESGPALVKPTQTLTLTCTFSGFSLSTSGMSVGWIRQPPGKALEWLADIWWDDKKDYNPSLKSRLTISKDTSKNQVVLKVTNMDPADTATYYCARSMITNWYFDVWGAGTTVTVSS VL: DIQMTQSPSTLSASVGDRVTITCKSQLSVGYMHWYQQKPGKAPKLLIYDTSKLASGVPSRFSGSGSGTEFTLTISSLQPDDFATYYCFQGSGYPFTFGGGTKLEIKR",binding result,[4],no binding
